The experiment has as its target T1, human IL-25R (IL-17BR) on human ILCs/ILC2s from primary CRC samples (human, UniProt Q9NRM6 18-502).
T1 construct: Endogenous receptor on primary patient cells; also called interleukin-17 receptor B
T1 sequence: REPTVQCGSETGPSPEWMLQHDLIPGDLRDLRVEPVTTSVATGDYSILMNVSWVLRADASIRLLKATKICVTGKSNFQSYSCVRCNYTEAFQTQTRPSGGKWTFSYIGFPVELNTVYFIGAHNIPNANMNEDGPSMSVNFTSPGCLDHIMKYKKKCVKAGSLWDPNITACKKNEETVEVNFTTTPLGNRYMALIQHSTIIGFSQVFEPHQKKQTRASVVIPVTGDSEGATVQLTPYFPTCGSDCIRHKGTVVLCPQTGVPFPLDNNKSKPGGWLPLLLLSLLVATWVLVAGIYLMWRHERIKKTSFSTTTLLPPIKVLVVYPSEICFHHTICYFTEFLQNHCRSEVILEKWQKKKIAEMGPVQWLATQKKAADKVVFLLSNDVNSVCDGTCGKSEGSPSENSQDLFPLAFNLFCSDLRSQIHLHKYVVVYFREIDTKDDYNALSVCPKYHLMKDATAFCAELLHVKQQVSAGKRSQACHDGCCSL
The experiment in a line: Flow cytometry of a primary human CRC sample stained with biotinylated D9.2 plus streptavidin-BV421. Cells were pre-gated on Live CD45+, then Lin- CD4-, CD127+, and CRTH2+ for ILC2. The protocol:
Subsequently, samples were digested with 62.5 μg/mL Liberase TL (Roche) and 0.125 KU/mL DNase I (Sigma) in RPMI+2% FCS+10 mM HEPES at 37° C., shaking, for 45 minutes to collect lamina propria cells. After digestion, cells were passed through a 70 μm cell strainer and washed with PBS+2% FCS before antibody staining. Mesenteric lymph nodes were mechanically dissociated in RPMI, filtered through a 50 μm cell strainer, and washed with PBS+2% FCS before antibody staining. Fresh, surgically-resected human CRC and adjacent normal tissue were collected in sterile PBS and transported on ice before sample processing. Samples were mechanically dissociated into small pieces and digested with 100 μg/mL Liberase TM (Roche) and 0.2 KU/mL DNase I (Sigma) in RPMI, and incubated at 37° C. for 30 minutes. Subsequently, cells were filtered through a 70 μm cell strainer and washed with PBS+2% FCS before antibody staining for flow cytometry.
For surface staining, single cell suspensions were 333 blocked with anti-CD16/32 antibody (Fc block, clone 2.4G2) and Human TruStain FcX (Biolegend, 422302) for mouse and human samples in PBS+2% FCS respectively, and incubated with fluorochrome-conjugated or biotinylated antibodies on ice for 30 minutes in the dark. If necessary, samples were then incubated with fluorochrome-conjugated streptavidin on ice for a further 30 minutes.
For orientation: Flow cytometry measures light scatter and fluorescence of single cells or particles in a stream.

The record followed here is patent US20240343794A1 (UNITED KINGDOM RESEARCH AND INNOVATION, published 2024).

B1: anti-IL25R monoclonal antibody (clone D9.2) (antibody, V domains shown)
VH: QVQLQQPGAELVRPGASVKLSCKTSGYTFISYWMNWVKQGPEQGLEWIGRIDPYDSEIQYNQKFKDKAILTVDKSSSAAYMQLISLTSEDSAVYYCARSGGFDWFAYWGQGTLVTVSA
VL: DIQMTQSPASLSVSVGETVTITCRASENINSNLAWYQQKKGKSPQLLVYDVTNLADGVPSRFSGSGSGTQYSLKINSLQSEDFGSYYCQHFWRPPYTFGGGTNLEIK
notes: Murine antibody; also called IL17BR (D9.2, AF647); IL17BR (D9.2, biotin)
Take B1: the binding result is given as “binds”.
